Ten variants from FireProtDB (doi:10.1016/s0022-2836(03)00043-3) can be followed below.

A word on the Tm: it is the temperature at the midpoint of the melting transition.

B1: Cyclin-dependent kinase inhibitor 2A, P42771 (parent)
chain: MEPAAGSSMEPSADWLATAAARGRVEEVRALLEAGALPNAPNSYGRRPIQVMMMGSARVAELLLLHGAEPNCADPATLTRPVHDAAREGFLDTLVVLHRAGARLDVRDAWGRLPVDLAEELGHRDVARYLRAAAGGTRGSNHARIDAAEGPSDIPD

The variants in the data set derive from B1. The following applies: Homo sapiens, pH 8.5, CD, Tris 10 mM, reversible: yes, structure 1A5E, whole UniProt chain shown; for Tm / change of melting temperature, mutant - wild type (higher = more stable): Thermal; for ddG of mutation (higher = less stable) / denaturant m value / denaturant midpoint (higher = more stable) / unfolding free energy: 20 °C, Urea.

As to V95K, the melting temperature (Tm) stood at 47 °C and the “change of melting temperature, mutant - wild type (higher = more stable)” value (“change of melting temperature, mutant” for short) was determined as 1 °C.
For L65K the same measures were 47.2 °C and 1.2 °C.
The matching figures for A73E: 46.2 °C and 0.2 °C.
Regarding R128E, the Tm stood at 47.6 °C and the “change of melting temperature, mutant” value is 1.6 °C.
The matching figures for R124D: 45.6 °C and -0.4 °C.
For the variant L37S, the “ddG of mutation (higher = less stable)” value is -0.71 kcal/mol, the denaturant m value turned out to be 1.82 kcal/mol/M, the “denaturant midpoint (higher = more stable)” value (“denaturant midpoint” below) was found to be 2.4 M and the unfolding free energy was found to be 4.05 kcal/mol. Moreover, the melting temperature (Tm) is 50.3 °C and the “change of melting temperature, mutant” value came to 4.3 °C.
Take W15D: the “ddG of mutation (higher = less stable)” value is -0.17 kcal/mol, the denaturant m value is 1.74 kcal/mol/M, the “denaturant midpoint” value turned out to be 2.1 M and the unfolding free energy was 3.52 kcal/mol.
For W15D L37S L121R the same measures were -1.42 kcal/mol, 1.56 kcal/mol/M, 2.8 M and 4.77 kcal/mol.
With L121R, the “ddG of mutation (higher = less stable)” value was -0.66 kcal/mol, the denaturant m value came to 1.61 kcal/mol/M, the “denaturant midpoint” value is 2.4 M and the unfolding free energy came to 4 kcal/mol. In addition, the melting temperature (Tm) stood at 50.4 °C and the “change of melting temperature, mutant” value came to 4.4 °C.
Regarding T18R, the melting temperature (Tm) was 45 °C and the “change of melting temperature, mutant” value is -1 °C.
